According to patent US20170283479:

How the values were obtained:
[1] = target: analogs where the A-chain is derived from the sequence of IGF-1
[2] = target: insulin analogs where the A-chain is derived from the native insulin sequence

B1: rDNA rat insulin-specific degrading enzyme (IDE) (protein)
chain: MNNPAIQRIEDHIVKSPEDKREYRGLELANGIKVLLISDPTTDKSSAALDVHIGSLSDPPNIPGLSHFCEHMLFLGTKKYPKENEYSQFLSEHAGSSNAFTSGEHTNYYFDVSHEHLEGALDRFAQFFLCPLFDASCKDREVNAVDSEHEKNVMNDAWRLFQLEKATGNPKHPFSKFGTGNKYTLETRPNQEGIDVREELLKFHSTYYSSNLMAICVLGRESLDDLTNLVVKLFSEVENKNVPLPEFPEHPFQEEHLKQLYKIVPIKDIRNLYVTFPIPDLQQYYKSNPGHYLGHLIGHEGPGSLLSELKSKGWVNTLVGGQKEGARGFMFFIINVDLTEEGLLHVEDIILHMFQYIQKLRAEGPQEWVFQECKDLNAVAFRFKDKERPRGYTSKIAGKLHYYPLNGVLTAEYLLEEFRPDLIDMVLDKLRPENVRVAIVSKSFEGKTDRTEQWYGTQYKQEAIPEDVIQKWQNADLNGKFKLPTKNEFIPTNFEILALEKDATPYPALIKDTAMSKLWFKQDDKFFLPKACLNFEFFSPFAYVDPLHCNMAYLYLELLKDSLNEYAYAAELAGLSYDLQNTIYGMYLSVKGYNDKQPILLKKITEKMATFEIDKKRFEIIKEAYMRSLNNFRAEQPHQHAMYYLRLLMTEVAWTKDELKEALDDVTLPRLKAFIPQLLSRLHIEALLHGNITKQAALGVMQMVEDTLIEHAHTKPLLPSQLVRYREVQLPDRGWFVYQRRNEVHNNCGIEIYYQTDMQSTSENMFLELFCQIISEPCFNTLRTKEQLGYIVFSGPRRANGIQGLRFIIQSEKPPHYLESRVEAFLITMEKAIEDMTEEAFQKHIQALAIRRLDKPKKLSAECAKYWGEIISQQYNYDRDNIEVAYLKTLSKDDIIKFYKEMLAVDAPRRHKVSVHVLAREMDSCPVVGEFPSQNDINLSEAPPLPQPEVIHNMTEFKRGLPLFPLVKPHINFMAAKL
Q: With B1 as the protein, how does the “cleavage by IDE (HPLC and residual insulin receptor phosphorylation activity)” value [1] read?
A: appear to be extremely resistant to proteolysis

Q: And the “cleavage by IDE (HPLC and residual insulin receptor phosphorylation activity)” value [2]?
A: extremely robust and easily detected
